# Results reported in patent publication US20150104459A1.
# Values joined by “and” are separate entries in the source; they are usually repeats but may differ in a detail not shown here. Equal entries are not always repeated.
# Tests used:
# [1] = target: M2 protein of influenza A/Hong Kong/483/97 (H5N1) (influenza A virus A/Hong Kong/483/97 (H5N1)); further: test concentration or dose not given here
# [2] = target: Hemagglutinin of influenza A/Solomon Islands/3/06 (H1N1) on whole virions (Influenza A virus A/Solomon Islands/3/2006(H1N1)); further: test concentration or dose not given here
# [3] = target: Hemagglutinin of influenza A/Wisconsin/67/05 (H3N2) on whole virions (Influenza A virus A/Wisconsin/67/2005(H3N2)); further: test concentration or dose not given here
# [4] = target: hemagglutinin (HA) of live influenza A/California/4/09 (H1N1) virus (influenza A virus A/California/04/2009 (H1N1)); assay: cell-based or functional assay
# [5] = target: hemagglutinin (HA) of live influenza A/Solomon Islands/3/06 (H1N1) virus (influenza A virus A/Solomon Islands/3/2006 (H1N1)); assay: cell-based or functional assay
# [6] = target: hemagglutinin (HA) of live influenza A/Wisconsin/67/05 (H3N2) virus (influenza A virus A/Wisconsin/67/2005 (H3N2)); assay: cell-based or functional assay
# [7] = target: recombinant soluble homotrimeric HA of A/Anhui/1/05 (H5N1) (Influenza A virus A/Anhui/1/2005 (H5N1)); assay: HA microarray, control mAb
# [8] = target: recombinant soluble homotrimeric HA of A/California/4/09 (H1N1) (Influenza A virus A/California/04/2009 (H1N1)); assay: HA microarray, control mAb
# [9] = target: recombinant soluble homotrimeric HA of A/Egypt/3300-NAMRU3/08 (H5N1) (Influenza A virus A/Egypt/3300-NAMRU3/2008 (H5N1)); assay: HA microarray, control mAb
# [10] = target: recombinant soluble homotrimeric HA of A/Hong Kong/2108/03 (H9N2) (Influenza A virus A/Hong Kong/2108/2003 (H9N2)); assay: HA microarray, control mAb
# [11] = target: recombinant soluble homotrimeric HA of A/Indonesia/5/05 (H5N1) (Influenza A virus A/Indonesia/5/2005 (H5N1)); assay: HA microarray, control mAb
# [12] = target: recombinant soluble homotrimeric HA of A/Japan/305/57 (H2N2) (Influenza A virus A/Japan/305/1957 (H2N2)); assay: HA microarray, control mAb
# [13] = target: recombinant soluble homotrimeric HA of A/Netherlands/219/03 (H7N7) (Influenza A virus A/Netherlands/219/03 (H7N7)); assay: HA microarray, control mAb
# [14] = target: recombinant soluble homotrimeric HA of A/Solomon Islands/3/06 (H1N1) (Influenza A virus A/Solomon Islands/3/2006 (H1N1)); assay: HA microarray, control mAb
# [15] = target: recombinant soluble homotrimeric HA of A/Vietnam/1203/04 (H5N1) (Influenza A virus A/Vietnam/1203/2004 (H5N1)); assay: HA microarray, control mAb
# [16] = target: recombinant soluble homotrimeric HA of A/Wisconsin/67/05 (H3N2) (Influenza A virus A/Wisconsin/67/2005 (H3N2)); assay: HA microarray, control mAb
# [17] = target: recombinant soluble homotrimeric HA of A/chicken/Vietnam/NCVD-016/08 (H5N1) (Influenza A virus A/chicken/Vietnam/NCVD-016/2008 (H5N1)); assay: HA microarray, control mAb
# [18] = target: recombinant soluble homotrimeric HA of A/duck/Yangzhou/02/2005 (H8N4) (Influenza A virus A/duck/Yangzhou/02/2005 (H8N4)); assay: HA microarray, control mAb
# [19] = target: recombinant soluble homotrimeric HA of A/northern shoveler/California/HKWF115/2007 (H6N1) (Influenza A virus A/northern shoveler/California/HKWF115/2007 (H6N1)); assay: HA microarray, control mAb
# [20] = target: recombinant soluble homotrimeric HA of A/swine/Ontario/01911-2/99 (H4N6) (Influenza A virus A/Swine/Ontario/01911-2/99 (H4N6)); assay: HA microarray, control mAb
# [21] = target: recombinant soluble homotrimeric HA, A/Hong Kong/1073/99 (H9N2) (influenza A virus A/Hong Kong/1073/99 (H9N2)); assay: microarray, trimeric HA, transfection supernatant
# [22] = target: recombinant soluble homotrimeric HA, A/Hong Kong/156/97 (H5N1) (influenza A virus A/Hong Kong/156/97 (H5N1)); assay: microarray, trimeric HA, transfection supernatant
# [23] = target: recombinant soluble homotrimeric HA, A/Hong Kong/2108/03 (H9N2) (influenza A virus A/Hong Kong/2108/2003 (H9N2)); assay: microarray, trimeric HA, transfection supernatant
# [24] = target: recombinant homotrimeric HA, A/California/4/09 H1N1 (Influenza A virus A/California/4/09 (H1N1)); assay: trimeric HA microarray; transfection supernatant set 5
# [25] = target: recombinant homotrimeric HA, A/Egypt/3300-NAMRU3/08 H5N1 (Influenza A virus A/Egypt/3300-NAMRU3/08 (H5N1)); assay: as above
# [26] = target: recombinant homotrimeric HA, A/Indonesia/5/05 H5N1 (Influenza A virus A/Indonesia/5/05 (H5N1)); assay: as above
# [27] = target: recombinant homotrimeric HA, A/Japan/305/57 H2N2 (Influenza A virus A/Japan/305/57 (H2N2)); assay: as above
# [28] = target: recombinant homotrimeric HA, A/Solomon Islands/3/06 H1N1 (Influenza A virus A/Solomon Islands/3/06 (H1N1)); assay: as above
# [29] = target: recombinant homotrimeric HA, A/South Carolina/1/18 H1N1 (Influenza A virus A/South Carolina/1/18 (H1N1)); assay: as above
# [30] = target: recombinant homotrimeric HA, A/Vietnam/1203/04 H5N1 (Influenza A virus A/Vietnam/1203/04 (H5N1)); assay: as above
# [31] = target: recombinant homotrimeric HA, A/Wisconsin/67/05 H3N2 (Influenza A virus A/Wisconsin/67/05 (H3N2)); assay: as above
# [32] = target: recombinant homotrimeric HA, A/swine/Ontario/01911-2/99 H4N6 (Influenza A virus A/swine/Ontario/01911-2/99 (H4N6)); assay: as above
# [33] = target: M2 protein of influenza A/Puerto Rico/8/34 (H1N1), on virus particles (influenza A virus A/Puerto Rico/8/34 (H1N1)) (UniProt P06821)
# Wherever Virus ELISA OD A450 is given: test concentration or dose not given here.
# TCN-032 (8I10) (antibody), sequence (VH): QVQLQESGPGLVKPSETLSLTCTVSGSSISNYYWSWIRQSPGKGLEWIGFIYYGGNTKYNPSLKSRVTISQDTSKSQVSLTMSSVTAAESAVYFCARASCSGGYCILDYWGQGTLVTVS
# TCN-032 (8I10) (antibody), sequence (VL): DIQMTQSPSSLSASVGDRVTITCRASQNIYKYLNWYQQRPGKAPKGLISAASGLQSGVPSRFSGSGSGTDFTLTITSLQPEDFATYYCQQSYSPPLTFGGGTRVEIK
substance,measurement,setting,value
TCN-032 (8I10) (antibody),FACS M2-HK MFI,[1],754 MFI and 1080 MFI
TCN-202 (2N9) (antibody),OD450,[2],0.07 OD450 and 0.08 OD450 and 0.1 OD450
same,OD450,[3],0.07 OD450 and 0.08 OD450
same,% Neutralization,[4],0%
same,% Neutralization,[5],0% and 7%
same,% Neutralization,[6],17.8% and 0%
same,Trimeric HA Binding RLU,[7],25 RLU
same,Trimeric HA Binding RLU,[8],39 RLU
same,Trimeric HA Binding RLU,[9],1280 RLU
same,Trimeric HA Binding RLU,[10],50 RLU
same,Trimeric HA Binding RLU,[11],24 RLU
same,Trimeric HA Binding RLU,[12],85 RLU
same,Trimeric HA Binding RLU,[13],348 RLU
same,Trimeric HA Binding RLU,[14],46 RLU
same,Trimeric HA Binding RLU,[15],53 RLU
same,Trimeric HA Binding RLU,[16],252 RLU
same,Trimeric HA Binding RLU,[17],69 RLU
same,Trimeric HA Binding RLU,[18],196 RLU
same,Trimeric HA Binding RLU,[19],105 RLU
same,Trimeric HA Binding RLU,[20],75 RLU
same,Trimeric HA Binding RLU,[21],57 RLU and 81 RLU
same,Trimeric HA Binding RLU,[22],945 RLU
same,Trimeric HA Binding RLU,[23],30 RLU and 22 RLU
same,Trimeric HA Binding: RLU,[24],733 RLU
same,Trimeric HA Binding: RLU,[25],13900 RLU
same,Trimeric HA Binding: RLU,[26],1970 RLU
same,Trimeric HA Binding: RLU,[27],1880 RLU
same,Trimeric HA Binding: RLU,[28],525 RLU
same,Trimeric HA Binding: RLU,[29],5330 RLU
same,Trimeric HA Binding: RLU,[30],30000 RLU
same,Trimeric HA Binding: RLU,[31],581 RLU
same,Trimeric HA Binding: RLU,[32],2690 RLU
mAb 2N9 (antibody),FACS M2-HK MFI,[1],11 MFI and 6 MFI
same,Virus ELISA OD A450,[33],0.15 OD A450 and 0.05 OD A450
